Source: US20100199379

Tested on: T1, Medicago sativa NAP1-like protein, 6×HIS-tagged, expressed in BL21 E. coli and purified on nickel agarose
T1 sequence: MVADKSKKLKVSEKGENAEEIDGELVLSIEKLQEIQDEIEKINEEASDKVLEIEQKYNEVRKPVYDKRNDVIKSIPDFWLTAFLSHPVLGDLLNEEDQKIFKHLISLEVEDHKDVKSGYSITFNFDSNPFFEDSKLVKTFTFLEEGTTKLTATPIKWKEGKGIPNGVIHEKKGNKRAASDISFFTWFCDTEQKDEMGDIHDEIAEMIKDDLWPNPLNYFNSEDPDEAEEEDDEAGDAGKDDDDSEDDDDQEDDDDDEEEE

Protein Phosphatase 2A (PP2A) catalytic subunits purified from rabbit skeletal muscle
PP2A activity on the phospho-histone H2A substrate (in vitro dephosphorylation of 32P-labelled substrate): already 2.5 mM concentration of the NAP1-like protein efficiently inhibited PP2A activity on the phospho-histonH2A substrate (50% decrease in activity)
PP2A dephosphorylation of glycogen phosphorylase (in vitro, 32P-labelled substrate): the NAP1-like protein had no influence on the dephosphorylation of the glycogen phosphorylase even at 500 mM concentration
